Target: the molecule itself
Assay: nonreducing PAGE and immunoblotting

B1: STING (natural protein, mouse (endogenous in BMDMs), UniProt Q3TBT3 1-378, looked up)
chain: MPYSNLHPAIPRPRGHRSKYVALIFLVASLMILWVAKDPPNHTLKYLALHLASHELGLLLKNLCCLAEELCHVQSRYQGSYWKAVRACLGCPIHCMAMILLSSYFYFLQNTADIYLSWMFGLLVLYKSLSMLLGLQSLTPAEVSAVCEEKKLNVAHGLAWSYYIGYLRLILPGLQARIRMFNQLHNNMLSGAGSRRLYILFPLDCGVPDNLSVVDPNIRFRDMLPQQNIDRAGIKNRVYSNSVYEILENGQPAGVCILEYATPLQTLFAMSQDAKAGFSREDRLEQAKLFCRTLEEILEDVPESRNNCRLIVYQEPTDGNSFSLSQEVLRHIRQEEKEEVTMNAPMTSVAPPPSVLSQEPRLLISGMDQPLPLRTDLI
  stoichiometry N: 2

— PMC6347470 (Immunity, 2018)
